The text below walks through data of US20090149377, “METHODS FOR REGULATION OF p53 TRANSLATION AND FUNCTION” (ST. JUDE CHILDREN'S RESEARCH HOSPITAL, published 2009).

The data set concerns the target RPL26 (Homo sapiens, UniProt P61254 SEQ:1-145). The experiment in a line: EMSA; supershift with anti-penta His; 1.5 mM Mg acetate, 90 mM K acetate, 30 C.

B1: p53 5'UTR (-191 to 2) (ssRNA)
RNA: GGUUUUCCCCUCCCAUGUGCUCAAGACUGGCGCUAAAAGUUUUGAGCUUCUCAAAAGUCUAGAGCCACCGUCCAGGGAGCAGGUAGCUGCUGGGCUCCGGGGACACUUUGCGUUCGGGCUGGGAGCGUGCUUUCCACGACGGUGACACGCUUCCCUGGAUUGGCAGCCAGACUGCCUUCCGGGUCACUGCCAU
Consider B1, for which the binding result was “binds”.
